Experimental data as given in patent US8673848 (Novartis, dated 2014).
Bridges are numbered along the chain shown (N, C = ends). Where no end group is shown, it is not given here. [ ]: non-standard residue; d: D form. The star is where a group is joined. Palmitoyl = CCCCCCCCCCCCCCCC(=O)*; Cha = N[C@@H](CC1CCCCC1)C(=O)O; pGlu = O=C1CC[C@@H](C(=O)O)N1; NHPhenethyl = c1ccc(CCN*)cc1; Lauroyl = CCCCCCCCCCCC(=O)*; Nle = CCCC[C@H](N)C(=O)O; Api = NC1(C(=O)O)CCNCC1; AEEA = NCCOCCOCC(=O)O; Aib = CC(C)(N)C(=O)O; Inp = O=C(O)C1CCNCC1

T1: human APJ receptor (hAPJ) (human, UniProt P35414 1-380)
T1 sequence (looked up): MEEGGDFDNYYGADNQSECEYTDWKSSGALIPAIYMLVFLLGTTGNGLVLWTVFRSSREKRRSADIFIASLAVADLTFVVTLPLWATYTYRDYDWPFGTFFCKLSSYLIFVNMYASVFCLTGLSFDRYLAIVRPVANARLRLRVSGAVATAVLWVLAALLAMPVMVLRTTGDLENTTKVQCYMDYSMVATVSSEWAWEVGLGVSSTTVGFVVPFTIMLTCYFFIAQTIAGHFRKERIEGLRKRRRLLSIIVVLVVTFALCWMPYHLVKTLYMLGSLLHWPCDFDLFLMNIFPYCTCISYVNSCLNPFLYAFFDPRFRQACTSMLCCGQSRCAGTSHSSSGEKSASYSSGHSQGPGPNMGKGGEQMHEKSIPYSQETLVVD


These binders were tested against T1, human APJ receptor (hAPJ) (assay: cell-based or functional assay).

| Binder | hAPJ Ca2+ Flux EC50 |
| --- | --- |
| [pGlu]RPRLKHFGP[Nle]D-NHPhenethyl (lactam 6-12; SMILES CCCC[C@@H]1NC(=O)[C@@H]2CCCN2C(=O)CNC(=O)[C@H](Cc2ccccc2)NC(=O)[C@H](Cc2c[nH]cn2)NC(=O)[C@@H](NC(=O)[C@H](CC(C)C)NC(=O)[C@H](CCCNC(=N)N)NC(=O)[C@@H]2CCCN2C(=O)[C@H](CCCNC(=N)N)NC(=O)[C@@H]2CCC(=O)N2)CCCCNC(=O)C[C@@H](C(=O)NCCc2ccccc2)NC1=O) [Example 1: pE-R-P-R-L-K-H-F-G-P-Nle-D-Phenethylamine] | 90.1 nM |
| [pGlu]RPRLC[Aib]KGP[Nle]C[dF]-OH (disulfide 6-12; SMILES CCCC[C@@H]1NC(=O)[C@@H]2CCCN2C(=O)CNC(=O)[C@H](CCCCN)NC(=O)C(C)(C)NC(=O)[C@@H](NC(=O)[C@H](CC(C)C)NC(=O)[C@H](CCCNC(=N)N)NC(=O)[C@@H]2CCCN2C(=O)[C@H](CCCNC(=N)N)NC(=O)[C@@H]2CCC(=O)N2)CSSC[C@@H](C(=O)N[C@H](Cc2ccccc2)C(=O)O)NC1=O) [Example 10: pE-R-P-R-L-C-Aib-K-G-P-Nle-C-f-OH] | 2.54 nM |
| [Inp]RPRLC[Aib]KGP[Nle]C[dF]-OH (disulfide 6-12; N-terminus assumed; SMILES CCCC[C@@H]1NC(=O)[C@@H]2CCCN2C(=O)CNC(=O)[C@H](CCCCN)NC(=O)C(C)(C)NC(=O)[C@@H](NC(=O)[C@H](CC(C)C)NC(=O)[C@H](CCCNC(=N)N)NC(=O)[C@@H]2CCCN2C(=O)[C@H](CCCNC(=N)N)NC(=O)C2CCNCC2)CSSC[C@@H](C(=O)N[C@H](Cc2ccccc2)C(=O)O)NC1=O) [Example 11: p-Isn-R-P-R-L-C-Aib-K-G-P-Nle-C-f-OH] | 3.52 nM |
| [pGlu]RPRLCHKGP[Nle]C-NHPhenethyl (disulfide 6-12) [Example 12: pE-R-P-R-L-C-H-K-G-P-Nle-C-Phenethylamine] | 2.07 nM |
| [pGlu]RPRLCHKGP[Nle]C[dF]-OH (disulfide 6-12; SMILES CCCC[C@@H]1NC(=O)[C@@H]2CCCN2C(=O)CNC(=O)[C@H](CCCCN)NC(=O)[C@H](Cc2c[nH]cn2)NC(=O)[C@@H](NC(=O)[C@H](CC(C)C)NC(=O)[C@H](CCCNC(=N)N)NC(=O)[C@@H]2CCCN2C(=O)[C@H](CCCNC(=N)N)NC(=O)[C@@H]2CCC(=O)N2)CSSC[C@@H](C(=O)N[C@H](Cc2ccccc2)C(=O)O)NC1=O) [Example 13: pE-R-P-R-L-C-H-K-G-P-Nle-C-f-OH] | 2.26 nM |
| [pGlu]RPR[Cha]CHKGP[Cha]CF-OH (disulfide 6-12; SMILES N=C(N)NCCC[C@H](NC(=O)[C@@H]1CCCN1C(=O)[C@H](CCCNC(=N)N)NC(=O)[C@@H]1CCC(=O)N1)C(=O)N[C@@H](CC1CCCCC1)C(=O)N[C@H]1CSSC[C@@H](C(=O)N[C@@H](Cc2ccccc2)C(=O)O)NC(=O)[C@H](CC2CCCCC2)NC(=O)[C@@H]2CCCN2C(=O)CNC(=O)[C@H](CCCCN)NC(=O)[C@H](Cc2c[nH]cn2)NC1=O) [Example 14: pE-R-P-R-Cha-C-H-K-G-P-Cha-C-F-OH] | 8.83 nM |
| [pGlu]RPRLCFKGP[Nle]CF-OH (disulfide 6-12; SMILES CCCC[C@@H]1NC(=O)[C@@H]2CCCN2C(=O)CNC(=O)[C@H](CCCCN)NC(=O)[C@H](Cc2ccccc2)NC(=O)[C@@H](NC(=O)[C@H](CC(C)C)NC(=O)[C@H](CCCNC(=N)N)NC(=O)[C@@H]2CCCN2C(=O)[C@H](CCCNC(=N)N)NC(=O)[C@@H]2CCC(=O)N2)CSSC[C@@H](C(=O)N[C@@H](Cc2ccccc2)C(=O)O)NC1=O) [Example 15: pE-R-P-R-L-C-F-K-G-P-Nle-C-F-OH] | 3.53 nM |
| H-RPRLCHKGP[Nle]CF-OH (disulfide 5-11; SMILES CCCC[C@@H]1NC(=O)[C@@H]2CCCN2C(=O)CNC(=O)[C@H](CCCCN)NC(=O)[C@H](Cc2c[nH]cn2)NC(=O)[C@@H](NC(=O)[C@H](CC(C)C)NC(=O)[C@H](CCCNC(=N)N)NC(=O)[C@@H]2CCCN2C(=O)[C@@H](N)CCCNC(=N)N)CSSC[C@@H](C(=O)N[C@@H](Cc2ccccc2)C(=O)O)NC1=O) [Example 16: H-R-P-R-L-C-H-K-G-P-Nle-C-F-OH] | 1.43 nM |
| H-RRPRLCHKGP[Nle]CF-OH (disulfide 6-12; SMILES CCCC[C@@H]1NC(=O)[C@@H]2CCCN2C(=O)CNC(=O)[C@H](CCCCN)NC(=O)[C@H](Cc2c[nH]cn2)NC(=O)[C@@H](NC(=O)[C@H](CC(C)C)NC(=O)[C@H](CCCNC(=N)N)NC(=O)[C@@H]2CCCN2C(=O)[C@H](CCCNC(=N)N)NC(=O)[C@@H](N)CCCNC(=N)N)CSSC[C@@H](C(=O)N[C@@H](Cc2ccccc2)C(=O)O)NC1=O) [Example 17: H-R-R-P-R-L-C-H-K-G-P-Nle-C-F-OH] | 3.29 nM |
| H-[Inp]RPRLCHKGP[Nle]CF-OH (disulfide 6-12; SMILES CCCC[C@@H]1NC(=O)[C@@H]2CCCN2C(=O)CNC(=O)[C@H](CCCCN)NC(=O)[C@H](Cc2c[nH]cn2)NC(=O)[C@@H](NC(=O)[C@H](CC(C)C)NC(=O)[C@H](CCCNC(=N)N)NC(=O)[C@@H]2CCCN2C(=O)[C@H](CCCNC(=N)N)NC(=O)C2CCNCC2)CSSC[C@@H](C(=O)N[C@@H](Cc2ccccc2)C(=O)O)NC1=O) [Example 18: H-Isn-R-P-R-L-C-H-K-G-P-Nle-C-F-OH] | 1.62 nM |
| [pGlu]RPRLCHFGP[Nle]C-NHPhenethyl (disulfide 6-12; SMILES CCCC[C@@H]1NC(=O)[C@@H]2CCCN2C(=O)CNC(=O)[C@H](Cc2ccccc2)NC(=O)[C@H](Cc2c[nH]cn2)NC(=O)[C@@H](NC(=O)[C@H](CC(C)C)NC(=O)[C@H](CCCNC(=N)N)NC(=O)[C@@H]2CCCN2C(=O)[C@H](CCCNC(=N)N)NC(=O)[C@@H]2CCC(=O)N2)CSSC[C@@H](C(=O)NCCc2ccccc2)NC1=O) [Example 19: pE-R-P-R-L-C-H-F-G-P-Nle-C-Phenethylamine] | 8.46 nM |
| [pGlu]RPRLKHFGP[Nle]E (lactam 6-12 (inferred); not fully specified (C-terminus); printed as pE-R-P-R-L-K-H-F-G-P-Nle-E-Phenethylamine) [Example 2: pE-R-P-R-L-K-H-F-G-P-Nle-E-Phenethylamine] | 133 nM |
| [pGlu]RPRLCHK[Aib]P[Nle]CF-OH (disulfide 6-12; SMILES CCCC[C@@H]1NC(=O)[C@@H]2CCCN2C(=O)C(C)(C)NC(=O)[C@H](CCCCN)NC(=O)[C@H](Cc2c[nH]cn2)NC(=O)[C@@H](NC(=O)[C@H](CC(C)C)NC(=O)[C@H](CCCNC(=N)N)NC(=O)[C@@H]2CCCN2C(=O)[C@H](CCCNC(=N)N)NC(=O)[C@@H]2CCC(=O)N2)CSSC[C@@H](C(=O)N[C@@H](Cc2ccccc2)C(=O)O)NC1=O) [Example 20: pE-R-P-R-L-C-H-K-Aib-P-Nle-C-F-OH] | 173 nM |
| [pGlu]RPRLCH[Api]GP[Nle]CF-OH (disulfide 6-12; SMILES CCCC[C@@H]1NC(=O)[C@@H]2CCCN2C(=O)CNC(=O)C2(CCNCC2)NC(=O)[C@H](Cc2c[nH]cn2)NC(=O)[C@@H](NC(=O)[C@H](CC(C)C)NC(=O)[C@H](CCCNC(=N)N)NC(=O)[C@@H]2CCCN2C(=O)[C@H](CCCNC(=N)N)NC(=O)[C@@H]2CCC(=O)N2)CSSC[C@@H](C(=O)N[C@@H](Cc2ccccc2)C(=O)O)NC1=O) [Example 21: pE-R-P-R-L-C-H-(4-NH-Isn)-G-P-Nle-C-F-OH] | 75.8 nM |
| [pGlu]RPRLCHKGP[Nle]CK(Palmitoyl)-OH (disulfide 6-12; SMILES CCCCCCCCCCCCCCCC(=O)NCCCC[C@H](NC(=O)[C@@H]1CSSC[C@H](NC(=O)[C@H](CC(C)C)NC(=O)[C@H](CCCNC(=N)N)NC(=O)[C@@H]2CCCN2C(=O)[C@H](CCCNC(=N)N)NC(=O)[C@@H]2CCC(=O)N2)C(=O)N[C@@H](Cc2c[nH]cn2)C(=O)N[C@@H](CCCCN)C(=O)NCC(=O)N2CCC[C@H]2C(=O)N[C@@H](CCCC)C(=O)N1)C(=O)O) [Example 22: pE-R-P-R-L-C-H-K-G-P-Nle-C-K(Palmitoyl)-OH] | 42 nM |
| [pGlu]RPRLCK(Palmitoyl)KGP[Nle]CF-OH (disulfide 6-12; SMILES CCCCCCCCCCCCCCCC(=O)NCCCC[C@@H]1NC(=O)[C@@H](NC(=O)[C@H](CC(C)C)NC(=O)[C@H](CCCNC(=N)N)NC(=O)[C@@H]2CCCN2C(=O)[C@H](CCCNC(=N)N)NC(=O)[C@@H]2CCC(=O)N2)CSSC[C@@H](C(=O)N[C@@H](Cc2ccccc2)C(=O)O)NC(=O)[C@H](CCCC)NC(=O)[C@@H]2CCCN2C(=O)CNC(=O)[C@H](CCCCN)NC1=O) [Example 23: pE-R-P-R-L-C-K(Palmitoyl)-K-G-P-Nle-C-F-OH] | 52.4 nM |
| Palmitoyl-[AEEA]QRPRLCHKGP[Nle]CF-OH (disulfide 7-13; SMILES CCCCCCCCCCCCCCCC(=O)NCCOCCOCC(=O)N[C@@H](CCC(N)=O)C(=O)N[C@@H](CCCNC(=N)N)C(=O)N1CCC[C@H]1C(=O)N[C@@H](CCCNC(=N)N)C(=O)N[C@@H](CC(C)C)C(=O)N[C@H]1CSSC[C@@H](C(=O)N[C@@H](Cc2ccccc2)C(=O)O)NC(=O)[C@H](CCCC)NC(=O)[C@@H]2CCCN2C(=O)CNC(=O)[C@H](CCCCN)NC(=O)[C@H](Cc2c[nH]cn2)NC1=O) [Example 24: Palmitoyl-O2Oc-Q-R-P-R-L-C-H-K-G-P-Nle-C-F-OH] | 32.6 nM |
| Lauroyl-[AEEA]QRPRLCHKGP[Nle]CF-OH (disulfide 7-13; SMILES CCCCCCCCCCCC(=O)NCCOCCOCC(=O)N[C@@H](CCC(N)=O)C(=O)N[C@@H](CCCNC(=N)N)C(=O)N1CCC[C@H]1C(=O)N[C@@H](CCCNC(=N)N)C(=O)N[C@@H](CC(C)C)C(=O)N[C@H]1CSSC[C@@H](C(=O)N[C@@H](Cc2ccccc2)C(=O)O)NC(=O)[C@H](CCCC)NC(=O)[C@@H]2CCCN2C(=O)CNC(=O)[C@H](CCCCN)NC(=O)[C@H](Cc2c[nH]cn2)NC1=O) [Example 25: Lauroyl-O2Oc-Q-R-P-R-L-C-H-K-G-P-Nle-C-F-OH] | 24.5 nM |
